This note sets out measurements from paper PMC8216847.

This assay concerns the target SARS-CoV-1 S-2P (SARS-CoV-1).

Turning to CV3-25 (antibody), the IC50 of neutralisation of SARS-CoV-1 pseudovirus is 2.1 µg/mL.
